Source: patent US20200377590A1 (Hoffmann-La Roche, published 2020)
Positions count from the first letter of the chain named. Read-outs that look alike come from different tables or passages of the source.

T1: CD81 (UniProt P60033 1-236, limits assumed)
T1 construct: whole, on cells; also called CD81 receptor
T1 sequence (looked up): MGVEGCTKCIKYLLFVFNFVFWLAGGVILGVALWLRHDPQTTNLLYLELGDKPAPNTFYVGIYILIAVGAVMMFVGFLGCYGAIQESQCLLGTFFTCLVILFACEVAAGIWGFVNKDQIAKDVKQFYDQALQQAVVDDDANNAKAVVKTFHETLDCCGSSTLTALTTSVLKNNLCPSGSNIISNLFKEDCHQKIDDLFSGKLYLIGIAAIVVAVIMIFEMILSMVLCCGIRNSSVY

B1: CD81K13 HC CD81K13 / LC 1c-hVK_3_15 (antibody, V domains shown)
VH: EVRLHQSAAQLVQPGASVRLSCTTSGFNFKDSYLHWVKQRPAQGLEWIGRIDTGNGNVKFDPKFQDKATITTDIPSMTAYLHLSNLTSEDTAVYYCVPYGYGFHSWGDGTTLTVSS
VL: EIVMTQSPATLSVSPGERATLSCRASENIYRTLAWYQQKPGQAPRLLIYGATTLADGIPARFSGSGSGTEFTLTISSLQSEDFGVYYCQHFWGTPWTFGQGTKVEIK
notes: human constant region
B2: CD81K13 HC CD81K13 / LC 01-hVK_3_15 (antibody, V domains shown)
VH: B1 VH
VL: B1 VL with L54R, D56T
notes: human constant region
B3: CD81K04 HC CD81K04 / LC CD81K04 (antibody, V domains shown)
VH: QVQLQQSGPELVKPGASVKISCKASGYTFSSSWMNWVKQRPGKGLEWIGRIYSGDGDAIYNGKFKGKATLTADKSSSTAYMQLSSLTSEDSAVYFCAREGKTGDLLLRSWGQGSALTVSS
VL: DIVLTQSPASLSVSLGQRATISCRASKSVSTSIYSYMHWYQQKPGQPPKLLIKYASYLESGVPARFSGSGSGTDFTLNIHPVEEEDAATYYCEHSREFPFTFGTGTKLEIK
notes: human constant region; also called CD81K04 (chimeric form)
B4: CD81K04 HC GG-01-hVH_5_51 / LC CD81K04 (antibody, V domains shown)
VH: EVQLVQSGAEVKKPGESLKISCKGSGYSFSSSWMNWVRQMPGKGLEWMGRIYSGDGDAIYSPSFQGQVTISADKSISTAYLQLSSLKASDTAMYYCAREGKTGDLLLRSWGQGTLVTVSS
VL: B3 VL
notes: human constant region
B5: CD81K04 HC CD81K04 / LC GG-02-hVK_4_1 (antibody, V domains shown)
VH: B3 VH
VL: DIVMTQSPDSLAVSLGERATINCKSSKSVSTSIYSYMHWYQQKPGQPPKLLIYYASYRESGVPDRFSGSGSGTDFTLTISSLQAEDVAVYYCQHSREFPFTFGQGTKLEIK
notes: human constant region
B6: CD81K04 HC CD81K04 / LC JA_GG-10-hVK_4_1 (antibody, V domains shown)
VH: B3 VH
VL: B5 VL with K24R, S25A, Y53K, R58L, Q93E
notes: human constant region
B7: CD81K04 HC GG-07-hVH_5_51 / LC CD81K04 (antibody, V domains shown)
VH: B4 VH with N35C, R50C
VL: B3 VL
notes: human constant region
B8: CD81K04 HC JA_GG-13-hVH_1_69 / LC GG-06-hVK_1_39 (antibody, V domains shown)
VH: QVQLVQSGAEVKKPGSSVKVSCKASGGTFSSSWMNWVRQAPGQGLEWMGRIYSGDGDAIYAQKFQGRVTITADESTSTAYMELSSLRSEDTAVYYCAREGKTGDLLLRSWGQGTLVTVSS
VL: DIQMTQSPSSLSASVGDRVTITCRASKSVSTSIYSYLNWYQQKPGKAPKLLIYYASYLQSGVPSRFSGSGSGTDFTLTISSLQPEDFATYYCQHSREFPYTFGQGTKLEIK
notes: human constant region
B9: CD81K04 HC CD81K04 / LC GG-06-hVK_1_39 (antibody, V domains shown)
VH: B3 VH
VL: B8 VL
notes: human constant region
B10: CD81K04 HC GG-05-hVH_1_18 / LC JA_GG-10-hVK_4_1 (antibody, V domains shown)
VH: B8 VH with S16A, G27Y, F64L, I70M, A72T, E74T, S84R, E89D
VL: B5 VL with K24R, S25A, Y53K, R58L, Q93E
notes: human constant region
B11: CD81K04 HC GG-01-hVH_5_51 / LC GG-06-hVK_1_39 (antibody, V domains shown)
VH: B4 VH
VL: B8 VL
notes: human constant region
B12: CD81K04 HC GG-02-hVH_1_69 / LC CD81K04 (antibody, V domains shown)
VH: B8 VH with G27Y, A61N
VL: B3 VL
notes: human constant region
B13: CD81K04 HC JA_GG-13-hVH_1_69 / LC CD81K04 (antibody, V domains shown)
VH: B8 VH
VL: B3 VL
notes: human constant region
B14: CD81K04 HC K04_JA_GG-17-hVH_1_3 / LC GG-06-hVK_1_39 (antibody, V domains shown)
VH: B8 VH with S16A, G27Y, G44R, A58T, A61S, E74T, T76A
VL: B8 VL
notes: human constant region
B15: CD81K04 HC JA_GG-16-hVH_1_3 / LC GG-06-hVK_1_39 (antibody, V domains shown)
VH: B8 VH with S16A, G27Y, A61N, Q62G, Q65K, E74T, T76A
VL: B8 VL
notes: human constant region
B16: CD81K04 HC JA_GG-15-hVH_1_3 / LC GG-06-hVK_1_39 (antibody, V domains shown)
VH: B8 VH with S16A, G27Y, G44R, A61N, Q62G, Q65K, E74T, T76A
VL: B8 VL
notes: human constant region
B17: CD81K04 HC K04_JA-13-hVH_1_3 / LC GG-06-hVK_1_39 (antibody, V domains shown)
VH: B8 VH with S16A, G27Y, G44R, A61N, Q62G, Q65K, A72R, E74T, T76A
VL: B8 VL
notes: human constant region
B18: CD81K04 HC GG-04-hVH_1_69 / LC CD81K04 (antibody, V domains shown)
VH: B8 VH with G27Y, A61N, V68A
VL: B3 VL
notes: human constant region
B19: CD81K04 HC JA_GG-14-hVH_1_69-GA / LC GG-06-hVK_1_39 (antibody, V domains shown)
VH: B8 VH with G27Y, A61N, Q62G, Q65K, R67K, V68A
VL: B8 VL
notes: human constant region
B20: CD81K04 HC JA_GG-14-hVH_1_3 / LC CD81K04 (antibody, V domains shown)
VH: B8 VH with S16A, G27Y, A61N, Q62G, Q65K, V68A, E74T, T76A
VL: B3 VL
notes: human constant region
B21: CD81K04 HC GG-06-hVH_1_69 / LC CD81K04 (antibody, V domains shown)
VH: B8 VH with G27Y, N35C, R50C, A61N
VL: B3 VL
notes: human constant region
B22: CD81K04 HC JA_GG-14-hVH_1_69-GA / LC CD81K04 (antibody, V domains shown)
VH: B8 VH with G27Y, A61N, Q62G, Q65K, R67K, V68A
VL: B3 VL
notes: human constant region
B23: CD81K04 HC JA_GG-14-hVH_1_69 / LC CD81K04 (antibody, V domains shown)
VH: B8 VH with G27Y, A61N, Q62G, Q65K, R67K, V68A
VL: B3 VL
notes: human constant region
B24: CD81K04 HC K04_JA-13-hVH_1_3 / LC CD81K04 (antibody, V domains shown)
VH: B8 VH with S16A, G27Y, G44R, A61N, Q62G, Q65K, A72R, E74T, T76A
VL: B3 VL
notes: human constant region
B25: CD81K04 HC JA_GG-14-hVH_1_69 / LC GG-06-hVK_1_39 (antibody, V domains shown)
VH: B8 VH with G27Y, A61N, Q62G, Q65K, R67K, V68A
VL: B8 VL
notes: human constant region
B26: CD81K04 HC JA_GG-16-hVH_1_3 / LC CD81K04 (antibody, V domains shown)
VH: B8 VH with S16A, G27Y, A61N, Q62G, Q65K, E74T, T76A
VL: B3 VL
notes: human constant region
B27: CD81K04 HC JA_GG-14-hVH_1_3 / LC GG-06-hVK_1_39 (antibody, V domains shown)
VH: B8 VH with S16A, G27Y, A61N, Q62G, Q65K, V68A, E74T, T76A
VL: B8 VL
notes: human constant region
B28: CD81K04 HC GG-03-hVH_1_69 / LC CD81K04 (antibody, V domains shown)
VH: B8 VH with G27Y
VL: B3 VL
notes: human constant region
B29: CD81K04 HC JA_GG-15-hVH_1_3 / LC CD81K04 (antibody, V domains shown)
VH: B8 VH with S16A, G27Y, G44R, A61N, Q62G, Q65K, E74T, T76A
VL: B3 VL
notes: human constant region
B30: CD81K04 HC GG-01-hVH_5_51 / LC GG-02-hVK_4_1 (antibody, V domains shown)
VH: B4 VH
VL: B5 VL
notes: human constant region
B31: CD81K04 HC GG-01-hVH_5_51 / LC GG-05-hVK_3_11 (antibody, V domains shown)
VH: B4 VH
VL: EIVLTQSPATLSLSPGERATLSCRASKSVSTSIYSYLHWYQQKPGQAPRLLIYYASNRETGIPARFSGSGSGTDFTLTISSLEPEDFAVYYCQHSREFPFTFGQGTKLEIK
notes: human constant region
B32: CD81K04 HC GG-01-hVH_5_51 / LC JA_GG-07-hVK_7_3 (antibody, V domains shown)
VH: B4 VH
VL: DIVLTQSPASLAVSPGQRATITCRASKSVSTSIYSYMHWYQQKPGQPPKLLIKYASNKDTGVPARFSGSGSGTDFTLTINPVEANDAANYYCLHSREFPYTFGQGTKLEIK
notes: human constant region
B33: CD81K04 HC GG-01-hVH_5_51 / LC JA_GG-09-hVK_4_1 (antibody, V domains shown)
VH: B4 VH
VL: B5 VL with Y53K, Y57T, Q93E
notes: human constant region
B34: CD81K04 HC GG-01-hVH_5_51 / LC GG-04-hVK_4_1 (antibody, V domains shown)
VH: B4 VH
VL: B5 VL with M37L, H38A, Y57T, F100Y
notes: human constant region
B35: CD81K04 HC GG-01-hVH_5_51 / LC JA_GG-08-hVK_4_1 (antibody, V domains shown)
VH: B4 VH
VL: B5 VL with Y53K, R58L, Q93E
notes: human constant region
B36: CD81K04 HC GG-01-hVH_5_51 / LC GG-03-hVK_4_1 (antibody, V domains shown)
VH: B4 VH
VL: B5 VL with M37L, H38A
notes: human constant region
B37: CD81K04 HC GG-01-hVH_5_51 / LC JA_GG-10-hVK_4_1 (antibody, V domains shown)
VH: B4 VH
VL: B5 VL with K24R, S25A, Y53K, R58L, Q93E
notes: human constant region

Assays:
CD81 [1] = molecular target: T1, CD81; test: cell ELISA
CD81 [2] = molecular target: T1, CD81; test: cell ELISA; remark: listed apart in the source
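Further: antibody binding to HuH7 cells expressing CD81 versus a CD81-negative HuH7 control line, bound antibody detected by secondary reagent, absorbance at 450 nm with 620 nm reference.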

Binder | ELISA data (CD81 [1]) | ELISA data (CD81 [2])
B1 | 0.95 | –
B2 | 1.01 | –
B3 | – | 1.14
B4 | – | 0.082
B5 | – | 0.785
B6 | – | 1.06
B7 | – | 0.233
B8 | – | 0.119
B9 | – | 0.185
B10 | – | 0.841
B11 | – | 0.089
B12 | – | 0.918
B13 | – | 0.564
B14 | – | 0.123
B15 | – | 0.08
B16 | – | 0.079
B17 | – | 0.064
B18 | – | 0.859
B19 | – | 0.066

Binder | ELISA data (CD81 [1]) | ELISA data (CD81 [2])
B20 | – | 0.998
B21 | – | 0.342
B22 | – | 0.877
B23 | – | 0.996
B24 | – | 0.974
B25 | – | 0.091
B26 | – | 0.98
B27 | – | 0.091
B28 | – | 0.843
B29 | – | 1
B30 | – | 0.081
B31 | – | 0.073
B32 | – | 0.061
B33 | – | 0.148
B34 | – | 0.186
B35 | – | 0.164
B36 | – | 0.129
B37 | – | 0.064
